Assay results taken from article PMC6872904.

Molecular target: Bmp8
Assay: SEC

Substance: Bmp8 (enzyme)
- stoichiometry N: 2
